Measurements published in patent publication US20080280824A1, “COMPOSITIONS AND METHODS FOR TREATMENT OF CANCER OR NEURODEGENERATIVE DISEASE WITH PEPTIDE BASED MICROTUBULE STABILIZERS OR INHIBITORS” (University of Washington, priority 2007, published 2008).
“Also recorded” adds a separate entry of the source. One block for each compound: values may come before it.

Assays:
Bovine brain tubulin [1] = assay: Tubulin thermal aggregation assay (absorbance at 340 nm); type: biochemical; settings: 52° C., 60 minutes; for effect on thermal aggregation of tubulin: synthetic peptide, 34 μM tubulin
Method: Tubulin aggregation assays. The effect of αB crystallin peptides and mutants on the thermal aggregation of tubulin was evaluated using ultra-violet spectroscopy. Bovine brain tubulin was dissolved to 200 μM in 80 mM PIPES, 2 mM MgCl2, 0.5 mM EGTA, pH 6.9. 4.25 μl of 0.08, 0.4, or 2 mM test peptide or protein was diluted into 40 μl of 80 mM PIPES, 2 mM MgCl2, 0.5 mM EGTA, pH 6.9. 8.5 μl of the 200 μM tubulin was added to each sample. Samples were heated at 52° C. and the absorbance at λ=340 nm was measured continuously for 60 minutes using a Pharmacia Biotech Ultrospec 3000. GTP and glycerol were not present in the samples because they induce the assembly of microtubules.

Bovine brain tubulin [2] = target: T1, Bovine brain tubulin (Bos taurus, UniProt P81947+Q6B856); assay: Microtubule assembly assay (DAPI fluorescence, Microtubule Stabilization/Destabilization Assay kit); type: biochemical; settings: for effect on total microtubule assembly / amount of microtubules formed in 45 minutes / effect on rate of microtubule assembly: peptide or control molecule
T1 construct: Bovine brain tubulin was dissolved to 200 μM; purchased Cytoskeleton; Denver, Colo; host or cells: bovine brain
T1 sequence (P81947 whole entry): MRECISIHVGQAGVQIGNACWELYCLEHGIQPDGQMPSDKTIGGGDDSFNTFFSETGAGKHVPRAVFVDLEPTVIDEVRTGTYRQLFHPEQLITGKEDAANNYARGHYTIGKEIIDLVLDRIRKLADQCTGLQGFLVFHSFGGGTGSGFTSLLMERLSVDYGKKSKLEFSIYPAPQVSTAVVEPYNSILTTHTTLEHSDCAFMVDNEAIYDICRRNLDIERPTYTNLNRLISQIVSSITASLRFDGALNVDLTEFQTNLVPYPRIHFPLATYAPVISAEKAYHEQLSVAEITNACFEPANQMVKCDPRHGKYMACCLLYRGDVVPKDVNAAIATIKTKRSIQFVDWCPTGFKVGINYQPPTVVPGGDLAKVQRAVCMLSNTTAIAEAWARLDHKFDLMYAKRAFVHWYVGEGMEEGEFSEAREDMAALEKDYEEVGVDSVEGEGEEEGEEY
T1 sequence (Q6B856 whole entry): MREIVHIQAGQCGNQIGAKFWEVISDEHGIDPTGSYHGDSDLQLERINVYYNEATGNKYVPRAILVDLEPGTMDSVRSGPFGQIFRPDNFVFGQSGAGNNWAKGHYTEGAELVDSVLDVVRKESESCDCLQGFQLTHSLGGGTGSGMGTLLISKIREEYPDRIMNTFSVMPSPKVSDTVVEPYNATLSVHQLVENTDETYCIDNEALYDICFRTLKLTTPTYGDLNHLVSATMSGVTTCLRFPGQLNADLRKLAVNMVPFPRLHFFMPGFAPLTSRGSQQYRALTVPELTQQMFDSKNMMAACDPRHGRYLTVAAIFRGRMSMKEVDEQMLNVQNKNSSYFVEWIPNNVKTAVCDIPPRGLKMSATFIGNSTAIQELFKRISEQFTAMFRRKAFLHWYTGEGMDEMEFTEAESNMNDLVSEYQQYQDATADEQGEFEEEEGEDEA
Method: Microtubule assembly assays. The effect of selected αB crystallin peptides on the in vitro assembly of tubulin into microtubules was evaluated using the Microtubule Stabilization/Destabilization Assay kit (Cytoskeleton; Denver, Colo.) as described previously. Bonne et al., J Biol Chem 260:2819-25, 1985. Bovine brain tubulin was dissolved to 200 μM in 80 mM PIPES, 2 mM MgCl2, 0.5 mM EGTA, 10 μM DAPI, 1 mM GTP pH 6.9. 8.5 μl of the tubulin was mixed with 40 μl of 80 mM PIPES, 2 mM MgCl2, 0.5 mM EGTA, 7.4 μM DAPI, 16% Glycerol, 1.1 mM GTP pH 6.9 and 4.3 μl of 2 mM peptide in 2.5% DMSO, 2 mM Paclitaxel (polymerization promoter) in 100% DMSO, 15 mM CaCl2 (polymerization inhibitor) in water, or 2.5% DMSO only. Microtubule assembly was monitored by measuring the fluorescence of DAPI, a molecule whose emission fluorescence at λ=460 is enhanced 8-fold when it is incorporated into assembled microtubules. Bonne et al., J Biol Chem 260:2819-25, 1985. Fluorescence of samples were continuously read on a Perkin Elmer Victor^3 V fluorescence plate reader (Excitation λ=355 nm, Emission λ=460 nm) at 37° C. for 45 minutes.
The effect of wt and three mutant αB crystallins, Δ41-58, αAβ8, and Δ155-165 on the in vitro assembly of tubulin into microtubules was evaluated using the Microtubule Stabilization/Destabilization Assay kit described above (Cytoskeleton; Denver, Colo.). Bovine brain tubulin was dissolved to 200 μM in 80 mM PIPES, 2 mM MgCl2, 0.5 mM EGTA, 10 μM DAPI, 1 mM GTP pH 6.9. 8.5 μl of the tubulin was mixed with 40 μl of 80 mM PIPES, 2 mM MgCl2, 0.5 mM EGTA, 7.4 μM DAPI, 16% Glycerol, 1.1 mM GTP pH 6.9 and 4.3 μl of 80 μM protein in 20 mM Tris-Cl, pH8.0 or Tris-Cl buffer only. Fluorescence of samples were continuously read on a Perkin Elmer Victor^3 V fluorescence plate reader (Excitation λ=355 nm, Emission λ=460 nm) at 37° C. for 45 minutes.

pre-formed microtubules = assay: Microtubule disassembly assay (DAPI fluorescence); type: biochemical, Bovine; settings: 23° C., 20 minutes; for effect on microtubule disassembly (words), vs absence of αB crystallin: wt or mutant αB crystallin (6.8 μM and 34 μM), 34 μM microtubules; for effect on microtubule disassembly / inhibition of microtubule disassembly: peptide 170 μM, 34 μM pre-formed microtubules
Method: Microtubule disassembly assays. The effect of αB crystallin peptides and mutants on the in vitro disassembly of microtubules into soluble tubulin was evaluated using the Microtubule Stabilization/Destabilization Assay kit described above (Cytoskeleton; Denver, Colo.) as described previously^36. 34 μM pre-formed microtubules were incubated with the αB crystallin peptides (170 μM) or wt and mutant αB crystallins (6.8 μM and 34 μM) at 23° C. for 20 minutes. Incubation of microtubules at 23° C. results in the spontaneous disassembly of microtubules. The decrease in DAPI fluorescence at λ=460 nm was measured continuously for 20 minutes by exciting the samples at λ=355 nm using a Perkin Elmer Victor^3 V fluorescence plate reader.

[3] = 34 μM tubulin, 37° C., 45 minutes, vs tubulin alone
[4] = 34 μM tubulin, 37° C., vs tubulin alone

Compound: wt αB crystallin: wild-type full-length human αB crystallin, small heat shock protein and molecular chaperone, expressed and purified
- decrease of thermal aggregation of tubulin (protection) (Bovine brain tubulin [1]; full-length αB crystallin protein): 65%
- effect on tubulin aggregation, vs absence of αB crystallin (Bovine brain tubulin [1]; wt or mutant αB crystallin protein): decreased
- effect on microtubule assembly (words) (Bovine brain tubulin [2]; high αB crystallin concentrations, tubulin:αB crystallin ratios <1:4): inhibited
- effect on microtubule assembly (words) (Bovine brain tubulin [2]; molar ratios of tubulin to αB crystallin <1:2): inhibited microtubule assembly
- effect on microtubule assembly (words) (Bovine brain tubulin [2]; molar ratios of tubulin to αB crystallin between 4:1 and 1:2): favored the assembly of additional microtubules; also recorded: promoted
- microtubule assembly (Bovine brain tubulin [2]; ratio of tubulin to αB crystallin 1:10): no microtubules were formed; also recorded: undetectable
- amount of microtubules formed less than tubulin alone (Bovine brain tubulin [2]; ratio of tubulin to αB crystallin <1:2, 34 μM tubulin): 30-63%
- effect on microtubule assembly (words) (Bovine brain tubulin [2]; ratio of tubulin to αB crystallin >4:1): minimal
- effect on microtubule assembly (words) (Bovine brain tubulin [2]; ratio of tubulin to αB crystallin >4:1, listed as αB crystallin): little or no effect
- microtubule assembly, normalized (absence of αB crystallin = 1.0) (Bovine brain tubulin [2]; ratios <1.4, FIG. 5): < 1
- microtubule assembly, normalized (absence of αB crystallin = 1.0) (Bovine brain tubulin [2]; ratios between 4:1 and 1.2, FIG. 5): > 1.0
- microtubule assembly, normalized (absence of αB crystallin = 1.0) (Bovine brain tubulin [2]; tubulin to αB crystallin ratios >4:1, FIG. 5): 1.0
- effect on microtubule assembly, vs absence of αB crystallin (Bovine brain tubulin [2]; wt or mutant αB crystallin protein, tubulin alone normalized to 1.0): increased
- increase of microtubule assembly (Bovine brain tubulin [2]; αB crystallin protein (4.3 μl of 80 μM), 34 μM tubulin, 37° C., 45 minutes): ~41%
- effect on microtubule disassembly (words), vs absence of αB crystallin (pre-formed microtubules): unchanged
- effect on microtubule disassembly (words), vs absence of αB crystallin (pre-formed microtubules; listed as Wt αB crystallin): no effect

Compound: DRFSVNLDVKHFS
- effect on thermal aggregation of tubulin (Bovine brain tubulin [1]): no effect
- effect on total microtubule assembly / amount of microtubules formed in 45 minutes (Bovine brain tubulin [2]; [3]): no effect; also recorded: without an effect
- effect on total microtubule assembly / amount of microtubules formed in 45 minutes (Bovine brain tubulin [2]; 34 μM tubulin, 37° C., 45 minutes, vs tubulin alone, listed as 73DRFSVNLDVKHFS85): no effect; also recorded: little or no effect
- effect on rate of microtubule assembly (Bovine brain tubulin [2]; [4]): accelerated microtubule assembly; also recorded: increased
- effect on microtubule disassembly (pre-formed microtubules): no effect
- effect on microtubule disassembly (pre-formed microtubules; listed as 73DRFSVNLDVKHFS85): little or no effect

Compound: ERTIPITRE [synthetic peptide of human αB crystallin C-terminal extension, residues 156-164]
- effect on thermal aggregation of tubulin (Bovine brain tubulin [1]): decreased
- effect on total microtubule assembly / amount of microtubules formed in 45 minutes (Bovine brain tubulin [2]; [3]): increased
- effect on total microtubule assembly / amount of microtubules formed in 45 minutes (Bovine brain tubulin [2]; 34 μM tubulin, 37° C., 45 minutes, vs tubulin alone, listed as 155ERTIPITRE165): promote microtubule assembly
- effect on total microtubule assembly / amount of microtubules formed in 45 minutes (Bovine brain tubulin [2]; 34 μM tubulin, 37° C., 45 minutes, vs tubulin alone, listed as 156ERTIPITRE164): promote microtubule assembly
- effect on rate of microtubule assembly (Bovine brain tubulin [2]; [4]): increased
- effect on microtubule disassembly (pre-formed microtubules): decreased
- inhibition of microtubule disassembly (pre-formed microtubules): ~36%
- effect on microtubule disassembly (pre-formed microtubules; listed as 156ERTIPITRE164): inhibit microtubule disassembly

Compound: FISREFHR
- effect on thermal aggregation of tubulin (Bovine brain tubulin [1]): decreased
- effect on thermal aggregation of tubulin (Bovine brain tubulin [1]; listed as 113FISREFHR120): protected
- effect on total microtubule assembly / amount of microtubules formed in 45 minutes (Bovine brain tubulin [2]; [3]): decreased the amount of microtubules formed; also recorded: inhibited
- effect on total microtubule assembly / amount of microtubules formed in 45 minutes (Bovine brain tubulin [2]; 34 μM tubulin, 37° C., 45 minutes, vs tubulin alone, listed as 113FISREFHR120): inhibited microtubule assembly
- effect on rate of microtubule assembly (Bovine brain tubulin [2]; [4]): slowed microtubule assembly
- decrease of microtubule assembly (Bovine brain tubulin [2]; synthetic peptide (4.3 μl of 2 mM), 34 μM tubulin, 37° C., 45 minutes, vs tubulin alone): approximately 45%
- effect on microtubule disassembly (pre-formed microtubules): decreased
- inhibition of microtubule disassembly (pre-formed microtubules): ~24%
- effect on microtubule disassembly (pre-formed microtubules; listed as 113FISREFHR120): inhibited

Second part, led by results:

- effect on total microtubule assembly / amount of microtubules formed in 45 minutes (Bovine brain tubulin [2]; [3]): increased
- effect on total microtubule assembly / amount of microtubules formed in 45 minutes (Bovine brain tubulin [2]; 34 μM tubulin, 37° C., 45 minutes, vs tubulin alone, listed as 131LTITSSLSSDGV142): promote microtubule assembly
- effect on rate of microtubule assembly (Bovine brain tubulin [2]; [4]): increased
Compound: LTITSSLSSDGV
- effect on thermal aggregation of tubulin (Bovine brain tubulin [1]): decreased
- effect on thermal aggregation of tubulin (Bovine brain tubulin [1]; listed as 131LTITSSLSSDGV142): protected
- effect on microtubule disassembly (pre-formed microtubules): no effect
- effect on microtubule disassembly (pre-formed microtubules; listed as 131LTITSSLSSDGV142): inhibit microtubule disassembly

- effect on rate of microtubule assembly (Bovine brain tubulin [2]; [4]): accelerated microtubule assembly
Compound: CC(=O)O[C@H]1C(=O)[C@@]2(C)[C@H]([C@H](OC(=O)c3ccccc3)[C@]3(O)C[C@H](OC(=O)[C@H](O)[C@@H](NC(=O)c4ccccc4)c4ccccc4)C(C)=C1C3(C)C)[C@]1(OC(C)=O)CO[C@@H]1C[C@@H]2O [Paclitaxel, reference compound]

- delay of initiation of microtubule assembly relative to tubulin alone (Bovine brain tubulin [2]; 34 μM tubulin, 37° C.): approximately 5 minutes
- effect on total microtubule assembly / amount of microtubules formed in 45 minutes (Bovine brain tubulin [2]; [3]): no effect; also recorded: no change
- effect on rate of microtubule assembly (Bovine brain tubulin [2]; [4]): slowed the rate of microtubule assembly
Compound: STSLSPFYLRPPSFLRAP
- effect on thermal aggregation of tubulin (Bovine brain tubulin [1]): small protective effect
- effect on total microtubule assembly / amount of microtubules formed in 45 minutes (Bovine brain tubulin [2]; 34 μM tubulin, 37° C., 45 minutes, vs tubulin alone, listed as 41STSLSPFYLRPPSFLRAP58): no effect; also recorded: little or no effect
- effect on microtubule disassembly (pre-formed microtubules): no effect
- effect on microtubule disassembly (pre-formed microtubules; listed as 41STSLSPFYLRPPSFLRAP58): little or no effect

- effect on total microtubule assembly / amount of microtubules formed in 45 minutes (Bovine brain tubulin [2]; [3]): inhibited microtubule assembly
Compound: [Ca+2].[Cl-].[Cl-] [CaCl2, reference compound]
